Assay [1] concerns the target T1, DauA fused to the T18 or T25 domain of adenylate cyclase (E. coli, UniProt P0AFR2 1-559).
T1 construct: C4-dicarboxylic acid transporter DauA (previously YchM), E. coli; Stood with T18 and with T25 in reciprocal pairings; one molecule for both; also called DauA-T18; DauA-T25; source: bacterial two-hybrid fusion (pUT18 or pKNT25), in E. coli BTH101 (cyaA-); not shown: T18 or T25 domain of Bordetella pertussis adenylate cyclase CyaA, C-terminal, kept
T1 sequence (looked up): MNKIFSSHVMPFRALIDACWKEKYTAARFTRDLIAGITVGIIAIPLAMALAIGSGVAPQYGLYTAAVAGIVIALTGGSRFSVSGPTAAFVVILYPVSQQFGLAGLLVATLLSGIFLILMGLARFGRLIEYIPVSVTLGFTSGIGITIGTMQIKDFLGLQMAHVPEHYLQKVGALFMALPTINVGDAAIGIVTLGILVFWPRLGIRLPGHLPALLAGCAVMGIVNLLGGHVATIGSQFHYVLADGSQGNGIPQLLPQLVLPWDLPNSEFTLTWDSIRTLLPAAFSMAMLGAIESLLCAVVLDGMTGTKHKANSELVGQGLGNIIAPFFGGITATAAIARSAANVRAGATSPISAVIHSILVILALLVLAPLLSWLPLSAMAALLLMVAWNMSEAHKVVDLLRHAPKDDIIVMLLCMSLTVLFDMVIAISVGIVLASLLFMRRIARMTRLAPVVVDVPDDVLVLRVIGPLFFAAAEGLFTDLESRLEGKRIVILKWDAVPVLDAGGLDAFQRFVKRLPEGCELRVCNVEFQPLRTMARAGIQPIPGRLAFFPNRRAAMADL
Briefly: two-hybrid; bacterial two-hybrid (BTH): T18 and T25 fusions co-transformed in E. coli BTH101 (cyaA-), grown overnight in LB at 30 °C; beta-galactosidase activity; background below 150 Miller units; the reporter strain expresses chromosomal DctA and DcuS. The settings on record: partners not purified.

For assay [2], the target named is T2, DctA fused to the T18 or T25 domain of adenylate cyclase (E. coli, UniProt P0A830 1-428).
T2 construct: Aerobic C4-dicarboxylate transport protein DctA, E. coli; also called DctA-T25; DctA-T18; source: bacterial two-hybrid fusion (pUT18 or pKNT25), in E. coli BTH101 (cyaA-); not shown: T18 or T25 domain of Bordetella pertussis adenylate cyclase CyaA, C-terminal, kept
T2 sequence (looked up): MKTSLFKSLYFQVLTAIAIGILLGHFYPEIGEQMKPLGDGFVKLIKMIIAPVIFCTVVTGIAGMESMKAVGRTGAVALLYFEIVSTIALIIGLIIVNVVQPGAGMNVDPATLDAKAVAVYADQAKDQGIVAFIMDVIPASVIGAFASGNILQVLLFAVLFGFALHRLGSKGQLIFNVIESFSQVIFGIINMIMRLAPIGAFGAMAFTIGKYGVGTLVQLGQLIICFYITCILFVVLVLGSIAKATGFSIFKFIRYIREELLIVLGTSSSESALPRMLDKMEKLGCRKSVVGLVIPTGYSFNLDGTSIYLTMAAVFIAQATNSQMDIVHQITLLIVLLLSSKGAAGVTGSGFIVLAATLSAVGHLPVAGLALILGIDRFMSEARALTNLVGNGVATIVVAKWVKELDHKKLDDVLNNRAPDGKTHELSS
The description is as above. Conditions: partners not purified.

This note sets out measurements from article PMC5703999, “The E. coli dicarboxylic acid transporters DauA act as a signal transducer by interacting with the DctA uptake system” (Scientific Reports, 2017).

B1: AmtB (ammonium transporter), two-hybrid fusion (natural protein, UniProt P69681 1-428, looked up)
chain: MKIATIKTGLASLAMLPGLVMAAPAVADKADNAFMMICTALVLFMTIPGIALFYGGLIRGKNVLSMLTQVTVTFALVCILWVVYGYSLAFGEGNNFFGNINWLMLKNIELTAVMGSIYQYIHVAFQGSFACITVGLIVGALAERIRFSAVLIFVVVWLTLSYIPIAHMVWGGGLLASHGALDFAGGTVVHINAAIAGLVGAYLIGKRVGFGKEAFKPHNLPMVFTGTAILYIGWFGFNAGSAGTANEIAALAFVNTVVATAAAILGWIFGEWALRGKPSLLGACSGAIAGLVGVTPACGYIGVGGALIIGVVAGLAGLWGVTMLKRLLRVDDPCDVFGVHGVCGIVGCIMTGIFAASSLGGVGFAEGVTMGHQLLVQLESIAITIVWSGVVAFIGYKLADLTVGLRVPEEQEREGLDVNSHGENAYNA
notes: Ammonium transporter AmtB; source: bacterial two-hybrid fusion, in E. coli BTH101 (cyaA-)
Turning to B1, the beta-galactosidase activity in assay [1] is below 150 Miller units.

B2: DcuS fused to the T18 or T25 domain of adenylate cyclase (natural protein, E. coli, UniProt P0AEC8 1-543, looked up)
chain: MRHSLPYRMLRKRPMKLSTTVILMVSAVLFSVLLVVHLIYFSQISDMTRDGLANKALAVARTLADSPEIRQGLQKKPQESGIQAIAEAVRKRNDLLFIVVTDMQSLRYSHPEAQRIGQPFKGDDILKALNGEENVAINRGFLAQALRVFTPIYDENHKQIGVVAIGLELSRVTQQINDSRWSIIWSVLFGMLVGLIGTCILVKVLKKILFGLEPYEISTLFEQRQAMLQSIKEGVVAVDDRGEVTLINDAAQELLNYRKSQDDEKLSTLSHSWSQVVDVSEVLRDGTPRRDEEITIKDRLLLINTVPVRSNGVIIGAISTFRDKTEVRKLMQRLDGLVNYADALRERSHEFMNKLHVILGLLHLKSYKQLEDYILKTANNYQEEIGSLLGKIKSPVIAGFLISKINRATDLGHTLILNSESQLPDSGSEDQVATLITTLGNLIENALEALGPEPGGEISVTLHYRHGWLHCEVNDDGPGIAPDKIDHIFDKGVSTKGSERGVGLALVKQQVENLGGSIAVESEPGIFTQFFVQIPWDGERSNR
notes: Membrane embedded sensor histidine kinase DcuS, E. coli; also called DcuS-T18; DcuS-T25; source: bacterial two-hybrid fusion (pUT18 or pKNT25), in E. coli BTH101 (cyaA-); not shown: T18 or T25 domain of Bordetella pertussis adenylate cyclase CyaA, C-terminal, kept
As for B2, the beta-galactosidase activity in assay [2] stood at 252 Miller units.
